Consider four molecules from patent US20230203162A1 (NUMAB THERAPEUTICS, published 2023).

The labels stand for the following.
B1: anti-MSLN scFv PRO1922 (scFv)
scFv: DIQMTQSPSSLSASVGDRVTITCQASESIYSSLAWYQQKPGKAPKLLIYLASTLASGVPSRFSGSGSGTDFTLTISSLQPEDFATYYCQSTDYTTSTHRNSFGTGTKVTVLGGGGGSGGGGSGGGGSGGGGSEVQLVESGGGLVQPGGSLRLSCAASGFSFSTTYYMCWVRQAPGKGLEWIGCTNTASSVRTYYATWAKGRFTISRDNSKNTVYLQMNSLRAEDTAVYYCARDMGFADYALNLWGQGTLVTVSS
notes: also called 54-21-H03-sc01
B2: anti-MSLN scFv PRO2306 (scFv)
scFv: ALQMTQSPSSLSARVGDRVTIKCQASQSISNYLAWYQQKPGKPPKFLIYDASDLASGVPSRFSGSGSGRDFTLTISSLQPEDFATYYCQQVYDSNNVENVFGTGTKVTVLGGGGGSGGGGSGGGGSGGGGSQSQLVESGGGLVQPGGSLRLSCAVSGFSLSSYAMGWVRQAPGKGLEYIGYISKIGTTYYASWAKGRFTISKDNSKNTVYLQMNSLRAEDTAVYFCARGSSSGGYLDDGFDPWGQGTLVTVSS
notes: also called 54-32-A07-sc06; PRO1925-S14R-T87R-T22K
B3: anti-MSLN scFv PRO2309 (scFv)
scFv: B2 scFv with T103C, G175C
notes: VL/VH interdomain disulfide variant; also called 54-32-A07-sc09; PRO1925-S14R-T87R-T22K-DIS
B4: anti-MSLN scFv PRO1925 (scFv)
scFv: B2 scFv with R14S, K22T, P59S, R69T
notes: also called 54-32-A07-sc02

Broadly, the EC50 is the concentration giving half of the maximal effect. For orientation: Kd means the concentration at which binding is half-saturated. One may read the koff as a measure of how fast the partners let go of each other. The term kon denotes a measure of how fast the partners come together. A word on the IC50: it is the midpoint of a concentration-inhibition curve. Higher therefore signals weaker potency in that assay.

Residue numbers refer to the chain shown, from its start. In names and notes the source's numbering stands.

The target in the first test is T1, plasma-membranous human MSLN on cell lines (H226, HPAC, H292, OVCAR-3, MeT-5A) (human, UniProt Q13421 296-598).
T1 construct: whole, on cells; also called human MSLN on H226 cells; mesothelin on target cells
The test is described as follows: cELISA on H226 cells, HRP-Protein L.
As for B1, the EC50 worked out at 0.29 nM; the “rel. EC50 (EC50, Amatuximab/EC50, scFv)” value was found to be 0.52 ratio; the “rel. Maximum binding (OD450-690 nm, scFv/OD450-690 nm, Amatuximab)” value (“rel. Maximum binding” below) came to 0.61 ratio.
As to B2, the response was half-maximal at 3.05 nM (EC50); the “rel. EC50 (EC50, Amatuximab/EC50, scFv)” value was 0.026 ratio; the “rel. Maximum binding” value worked out at 0.55 ratio.
Turning to B3, the EC50 is 1.13 nM; the “rel. EC50 (EC50, Amatuximab/EC50, scFv)” value worked out at 0.07 ratio; the “rel. Maximum binding” value was found to be 0.78 ratio.
Regarding B4, the EC50 turned out to be 1.01 nM; the “rel. EC50 (EC50, Amatuximab/EC50, scFv)” value was determined as 0.11 ratio; the “rel. Maximum binding” value was determined as 0.58 ratio.

In the next test the target is T2, recombinant human MSLN (purchased from Peprotech) (human, UniProt Q13421 296-598, limits assumed).
T2 construct: Bought protein; also called recombinant human mesothelin
The experiment in a line: SPR, MSLN immobilized on CM5, scFv as analyte, 1:1 Langmuir.
Take B1: the Kd came out at 0.177 nM, the dissociation rate constant (koff) was determined as 0.00013 s⁻¹ and the kon is 735000 M⁻¹ s⁻¹.
The matching figures for B2: 0.322 nM, 0.000873 s⁻¹ and 2.72e+06 M⁻¹ s⁻¹.
The matching figures for B3: 0.444 nM, 0.00138 s⁻¹ and 3.11e+06 M⁻¹ s⁻¹.
On the same counts, the results for B4 are 0.488 nM, 0.000794 s⁻¹ and 1.63e+06 M⁻¹ s⁻¹.

The target of the next test is biotinylated MSLN (human MSLN in the MSLN/MUC16 competition ELISA) (human, UniProt Q13421 296-598, limits assumed, biotinylated). The test is described as follows: competition ELISA, scFv titrated with biotinylated MSLN; competitor coated MUC16. Background: In an ELISA, binding on a coated surface is turned into a signal by an enzyme label.
With B1, the 50% inhibitory concentration (IC50) amounted to 0.05 nM; the “Maximum inhibition at highest sample conc.” value was determined as 99.3%; the “rel. IC50 (IC50, Amatuximab/IC50, scFv)” value came out at 0.29 ratio.
The matching figures for B4: 0.14 nM, 99.2% and 0.11 ratio.
